We go through 3 substances from PMC3032639.

In experiment [1] the target is TraB C-terminal domain (TraBCT) (E. coli (plasmid pKM101)). The experiment in a line: SEC.
For experiment [2] the target is unchanged. Nature of the experiment: SAXS; beamline ID02 (ESRF), buffer GFsol, 20°C; TraBCT 2.1-8.2 mg/ml, LvhB4 2-8.9 mg/ml; molecular mass from forward scattering I(0), absolute calibration with water; self-association.
Experiment [3] has as its target TraB N-terminal domain (TraBNT), membrane-extracted form (E. coli (plasmid pKM101)) (UniProt P41067). The experiment in a line: SEC.
Experiment [4] shares this target. The experiment in a line: SAXS; beamline X33 (EMBL-Hamburg), buffer GFmb; TraBFL 3-13.5 mg/ml, TraBNT 1.3-8.2 mg/ml; molecular mass from forward scattering I(0), calibrated with BSA; self-association.
Experiment [5] deals with TraB full-length (TraBFL), the VirB4 homolog encoded by the E. coli pKM101 plasmid, membrane-extracted form (E. coli (plasmid pKM101)) (UniProt P41067). Nature of the experiment: SEC.
For experiment [6] the target is unchanged. The experiment in a line: SAXS; beamline X33 (EMBL-Hamburg), buffer GFmb; TraBFL 3-13.5 mg/ml, TraBNT 1.3-8.2 mg/ml; molecular mass from forward scattering I(0), calibrated with BSA; self-association.

“TraB C-terminal domain (TraBCT) (domain or fragment)”: the stoichiometry N in experiment [1] and in experiment [2] was 2 throughout.
For “TraB N-terminal domain (TraBNT), membrane-extracted form (from UniProt P41067 1-442) (domain or fragment)”, the stoichiometry N in experiment [3] and in experiment [4] was 2 throughout.
As to “TraB full-length (TraBFL), the VirB4 homolog encoded by the E. coli pKM101 plasmid, membrane-extracted form (from UniProt P41067 1-475) (natural protein)”, the stoichiometry N in experiment [5] and in experiment [6] was 2 each time.
